How the values were obtained:
[1] = molecular target: human CD99 on live/intact cells (human) (UniProt P14209); assay: flow cytometry, live TC-71 cells (Ewing sarcoma)
[2] = molecular target: human CD99 on live/intact cells (human) (UniProt P14209); assay: flow cytometry, live RD-ES cells (Ewing sarcoma)
[3] = molecular target: human CD99 on live/intact cells (human) (UniProt P14209); assay: flow cytometry, live RM-82 cells (Ewing sarcoma)
[4] = molecular target: human CD99 on live/intact cells (human) (UniProt P14209); assay: flow cytometry, live U2-OS cells (osteosarcoma)
[5] = molecular target: human CD99 on live/intact cells (human) (UniProt P14209); assay: flow cytometry, live HSSC163 cells (mesenchymal)
[6] = molecular target: human CD99 on live/intact cells (human) (UniProt P14209); assay: flow cytometry, live MOS cells (osteosarcoma)
[7] = molecular target: human CD99 on live/intact cells (human) (UniProt P14209); assay: flow cytometry, live SKES-1 cells (Ewing sarcoma)
[8] = molecular target: human CD99 on live/intact cells (human) (UniProt P14209); assay: flow cytometry, live H-825 cells (Ewing sarcoma)
[9] = molecular target: human CD99 on live/intact cells (human) (UniProt P14209); assay: flow cytometry, live IOR/OS7 cells (osteosarcoma)
[10] = molecular target: human CD99 on live/intact cells (human) (UniProt P14209); assay: flow cytometry, live MG-63 cells (osteosarcoma)
[11] = molecular target: human CD99 on live/intact cells (human) (UniProt P14209); assay: flow cytometry, PBMC
[12] = molecular target: human CD99 on live/intact cells (human) (UniProt P14209); assay: flow cytometry, live HSSC168 cells (mesenchymal)

Sequence of UniProt P14209 (P14209 23-185): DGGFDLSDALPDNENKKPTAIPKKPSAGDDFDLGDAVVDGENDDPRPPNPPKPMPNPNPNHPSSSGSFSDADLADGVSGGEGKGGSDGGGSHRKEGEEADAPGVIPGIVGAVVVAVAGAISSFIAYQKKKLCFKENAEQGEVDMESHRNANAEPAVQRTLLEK

percent of cells positive [1]: 75 to 100% | percent of cells positive [2]: 75 to 100% | percent of cells positive [3]: 75 to 100% | percent of cells positive [4]: 50 to 75% | percent of cells positive [5]: 50 to 75% | percent of cells positive [6]: 75 to 100% | percent of cells positive [7]: 75 to 100% | percent of cells positive [8]: 75 to 100% | percent of cells positive [9]: 75 to 100% | percent of cells positive [10]: 75 to 100% | percent of cells positive [11]: 75 to 100% | percent of cells positive [12]: 75 to 100%
Substance: mAbO13 (antibody)

Reference: patent publication US20120282257A1
